The values below come from patent JP2022028645A (dated 2022).

Residue numbers refer to the chain shown, from its start. In names and notes the source's numbering stands.

The target in assay [1] is T1, Human EGFRvIII expressed on cells (CHO-EGFRvIII, DK-MG, U87MG-EGFRvIII) (human, UniProt P00533 298-1210).
T1 construct: also called EGFRvIII; huEGFRvIII
Kind of assay: flow cytometry on CHO-EGFRvIII and EGFRvIII-positive DK-MG cells. A general note: Flow cytometry measures light scatter and fluorescence of single cells or particles in a stream.

Assay [2] deals with T1, Human EGFRvIII expressed on cells …. Kind of assay: flow cytometry on CHO-EGFRvIII cells, TCB against the corresponding IgG.
Assay [3] shares this target. As to the kind of experiment: SPR and flow cytometry on U87MG-EGFRvIII and MKN-45 cells, compared with the parental binder.
Assay [4] deals with T2, Recombinant human CD3 antigen: heterodimer of CD3 delta and CD3 epsilon ectodomains fused to human Fc domain … (human).
T2 construct: also called 組換えCD3; ヒトCD3
Kind of assay: SPR (Biacore T200), TCB captured at 20 nM by anti-PGLALA antibody, CD3 antigen as analyte, 1:1 Langmuir fit. (In SPR one partner is held on a chip, and binding of the other changes the refractive index at the surface.)

In assay [5] the target is T3, Recombinant cynomolgus CD3 antigen: heterodimer of cynomolgus CD3 delta and CD3 epsilon ectodomains fused to … (cynomolgus monkey).
T3 construct: also called カニクイザルCD3
The description is as above.

For assay [6], the target named is T4, EGFRvIII-ECD avi his (extracellular domain of human EGFRvIII fused to C-terminal Avi-tag and His-tag) (human).
T4 construct: also called 組み換えEGFRvIII; EGFRvIII抗原
As to the kind of experiment: SPR (Biacore T200), TCB (5 nM) captured by anti-Fc antibody, EGFRvIII-ECD avi his 3-fold dilution series as analyte, 1:1 Langmuir fit.

For assay [7], the target named is T2, Recombinant human CD3 antigen: …. As to the kind of experiment: SPR (Biacore T200), TCB captured by anti-PGLALA antibody, CD3 antigen 12.35-3000 nM as analyte, 1:1 Langmuir fit.
Assay [8] deals with T3, Recombinant cynomolgus CD3 antigen: …. The description is as above.
Assay [9] concerns the target T5, Mouse TYRP1 extracellular domain (ECD), monomeric fusion to human Fc domain with knob-into-hole and PG LALA … (mouse, UniProt P01857 104-328 = IgG part).
T5 construct: also called マウスTYRP1
Kind of assay: SPR (Biacore T200), TYRP1 ECD-Fc captured by anti-PGLALA antibody, Fab 3-fold dilution series as analyte, 1:1 Langmuir fit.

Assay [10] deals with T6, Human TYRP1 extracellular domain (ECD), monomeric fusion to human Fc domain with knob-into-hole and PG LALA … (human, UniProt P01857 104-328 = IgG part).
T6 construct: also called ヒトTYRP1
The description is as above.

The target of assay [11] is T7, Cynomolgus TYRP1 extracellular domain (ECD), monomeric fusion to human Fc domain with knob-into-hole and PG … (cynomolgus monkey, UniProt P01857 104-328 = IgG part).
T7 construct: also called カニクイザルTYRP1
Described as above.

The target of assay [12] is T2, Recombinant human CD3 antigen: …. Kind of assay: SPR (Biacore T200), antibody captured by anti-Fab, CD3 antigen 10 ug/ml, relative active concentration after 14 days of temperature stress.

B1: EGFRvIII IgG PGLALA P056.021 (antibody, human IgG1, V domains shown)
VH: EVQLVQSGAEVKKPGESLKISCKGSGYSFDSYWIAWVRQMPGKGLEWMGVIHPYDSDTRYSPSFQGQVTISADKSISTAYLQWSSLKASDTAMYYCARVSRSSYAFDYWGQGTLVTVSS
VL: not shown
notes: Human IgG1 with P329G L234A L235A; also called P056.021
B1: in assay [1], the binding result is “binds”.

B2: EGFRvIII TCB P056.021 (with CD3orig, 2+1 IgG CrossFab inverted) (bispecific antibody, V domains shown)
VH 1: B1 VH
VL 1: not shown
VH 2: not shown
VL 2: QAVVTQEPSLTVSPGGTVTLTCGSSTGAVTTSNYANWVQEKPGQAFRGLIGGTNKRAPGTPARFSGSLLGGKAALTLSGAQPEDEAEYYCALWYSNLWVFGGGTKLTVL
notes: only the variable domains can be tied to it; also called P056.021 EGFRvIII TCB; parental EGFRvIII TCB
Turning to B2, the binding result in assay [2] is “binds”.

B3: EGFRvIII IgG PGLALA P063.056 (affinity-matured EGFRvIII binder) (antibody, human IgG1, V domains shown)
VH: B1 VH
VL: not shown
notes: Human IgG1 PGLALA; also called P063.056
In the case of B3, the binding result in assay [3] is given as “binds”.

B4: EGFRvIII TCB CD3 opt (EGFRvIII binder P063.056 and optimized CD3 binder, 2+1 IgG CrossFab inverted) (bispecific antibody)
heavy 1: not shown
heavy 2: EVQLVQSGAEVKKPGESLKISCKGSGYSFDSYWIAWVRQMPGKGLEWMGVIHPYDSDTRYSPSFQGQVTISADKSISTAYLQWSSLKASDTAMYYCARVSRSSYAFDYWGQGTLVTVSSASTKGPSVFPLAPSSKSTSGGTAALGCLVEDYFPEPVTVSWNSGALTSGVHTFPAVLQSSGLYSLSSVVTVPSSSLGTQTYICNVNHKPSNTKVDEKVEPKSCDKTHTCPPCPAPEAAGGPSVFLFPPKPKDTLMISRTPEVTCVVVDVSHEDPEVKFNWYVDGVEVHNAKTKPREEQYNSTYRVVSVLTVLHQDWLNGKEYKCKVSNKALGAPIEKTISKAKGQPREPQVCTLPPSRDELTKNQVSLSCAVKGFYPSDIAVEWESNGQPENNYKTTPPVLDSDGSFFLVSKLTVDKSRWQQGNVFSCSVMHEALHNHYTQKSLSLSP
light 1: not shown
light 2: EVQLLESGGGLVQPGGSLRLSCAASGFQFSSYAMNWVRQAPGKGLEWVSRIRSKYNNYATYYADSVKGRFTISRDDSKNTLYLQMNSLRAEDTAVYYCVRHTTFPSSYVSYYGYWGQGTLVTVSSASVAAPSVFIFPPSDEQLKSGTASVVCLLNNFYPREAKVQWKVDNALQSGNSQESVTEQDSKDSTYSLSSTLTLSKADYEKHKVYACEVTHQGLSSPVTKSFNRGEC
notes: Chain roles inferred as for TYRP1 TCB; also called EGFRvIII TCB; P063.056 EGFRvIII TCB with CD3opt
By Kd is commonly meant the concentration at which binding is half-saturated. Consider B4, for which the figures for the Kd in [4], in assay [5] and in assay [6] were 30 nM, 20 nM and 6 nM, respectively.

B5: TYRP1 TCB CD3 opt (T cell bispecific antibody to CD3 and TYRP1 with optimized CD3 binder, 2+1 IgG CrossFab inverted, charge modifications, PGLALA) (bispecific antibody)
heavy 1: not shown
heavy 2: QVQLVQSGAEVKKPGASVKVSCKASGFNIKDYFLHWVRQAPGQGLEWMGWINPDNGNTVYAQKFQGRVTMTADTSTSTVYMELSSLRSEDTAVYYCTRRDYTYEKAALDYWGQGTLVTVSSASTKGPSVFPLAPSSKSTSGGTAALGCLVEDYFPEPVTVSWNSGALTSGVHTFPAVLQSSGLYSLSSVVTVPSSSLGTQTYICNVNHKPSNTKVDEKVEPKSCDKTHTCPPCPAPEAAGGPSVFLFPPKPKDTLMISRTPEVTCVVVDVSHEDPEVKFNWYVDGVEVHNAKTKPREEQYNSTYRVVSVLTVLHQDWLNGKEYKCKVSNKALGAPIEKTISKAKGQPREPQVCTLPPSRDELTKNQVSLSCAVKGFYPSDIAVEWESNGQPENNYKTTPPVLDSDGSFFLVSKLTVDKSRWQQGNVFSCSVMHEALHNHYTQKSLSLSP
light 1: DIQMTQSPSSLSASVGDRVTITCRASGNIYNYLAWYQQKPGKVPKLLIYDAKTLADGVPSRFSGSGSGTDFTLTISSLQPEDVATYYCQHFWSLPFTFGQGTKLEIKRTVAAPSVFIFPPSDRKLKSGTASVVCLLNNFYPREAKVQWKVDNALQSGNSQESVTEQDSKDSTYSLSSTLTLSKADYEKHKVYACEVTHQGLSSPVTKSFNRGEC
light 2: B4 light 2
notes: also called TYRP1 TCB; TYRP-1 TCB
B5: the Kd amounted to 50 nM in [7] and 20 nM in assay [8].

B6: EGFRvIII TCB CD3 orig (EGFRvIII binder P063.056 and original CD3 binder, 2+1 IgG CrossFab inverted) (bispecific antibody)
heavy 1: not shown
heavy 2: B4 heavy 2
light 1: not shown
light 2: B4 light 2 with Q28T, S31T, T102G, T103N, P105G, S106N, Y111W, Y112F, G113A
notes: chain roles inferred; also called P063.056 EGFRvIII TCB with CD3orig
B6: the Kd amounted to 40 nM in assay [4] and 6 nM in assay [6].

B7: TYRP1 TCB CD3 orig (T cell bispecific antibody to CD3 and TYRP1 with original CD3 binder, 2+1 IgG CrossFab inverted) (bispecific antibody)
heavy 1: not shown
heavy 2: B5 heavy 2
light 1: B5 light 1
light 2: B4 light 2 with Q28T, S31T, T102G, T103N, P105G, S106N, Y111W, Y112F, G113A
notes: chain roles inferred as for the CD3opt molecule
B7: the dissociation constant Kd in assay [7] was 50 nM.

B8: TYRP1 Fab断片 (Fab fragment of the humanized TA99-derived TYRP1 binder, made by plasmin digestion of the corresponding antibody) (Fab, V domains shown)
VH: QVQLVQSGAEVKKPGASVKVSCKASGFNIKDYFLHWVRQAPGQGLEWMGWINPDNGNTVYAQKFQGRVTMTADTSTSTVYMELSSLRSEDTAVYYCTRRDYTYEKAALDYWGQGTLVTVSS
VL: DIQMTQSPSSLSASVGDRVTITCRASGNIYNYLAWYQQKPGKVPKLLIYDAKTLADGVPSRFSGSGSGTDFTLTISSLQPEDVATYYCQHFWSLPFTFGQGTKLEIK
notes: also called TYRP1 Fab
Regarding B8, the Kd in assay [9] came to 0.53 nM; in assay [10], 0.13 nM; in assay [11], 0.18 nM.

B9: CD3 opt ヒトIgG1 PGLALA (optimized CD3 binder, human IgG1 with P329G L234A L235A) (antibody, V domains shown)
VH: EVQLLESGGGLVQPGGSLRLSCAASGFQFSSYAMNWVRQAPGKGLEWVSRIRSKYNNYATYYADSVKGRFTISRDDSKNTLYLQMNSLRAEDTAVYYCVRHTTFPSSYVSYYGYWGQGTLVTVSS
VL: QAVVTQEPSLTVSPGGTVTLTCGSSTGAVTTSNYANWVQEKPGQAFRGLIGGTNKRAPGTPARFSGSLLGGKAALTLSGAQPEDEAEYYCALWYSNLWVFGGGTKLTVLR
notes: also called CD3opt; CD3opt IgG PGLALA
Regarding B9, in [12], the binding result is on record as “binds”.
